Values of other authors, collected in PMC6442720.

Target: laminin 10 (Homo sapiens) (UniProt O15230)

- Kd: 7.9 nM
Substance: integrin α3β1 (from UniProt P26006)
